Reference: patent EP4755449A2 (CHUGAI SEIYAKU KABUSHIKI KAISHA, dated 2026)
Values belong to the binder of their own block, whether it stands above or below them.

What was measured:
[1] = biological target: T1, human latent myostatin (human, UniProt O14793 25-266; O14793 267-375); assay: SPR 37C pH7.4
T1 construct: non-covalent complex of two propeptides and the mature homodimer; also called human myostatin latent form
T1 sequence 1: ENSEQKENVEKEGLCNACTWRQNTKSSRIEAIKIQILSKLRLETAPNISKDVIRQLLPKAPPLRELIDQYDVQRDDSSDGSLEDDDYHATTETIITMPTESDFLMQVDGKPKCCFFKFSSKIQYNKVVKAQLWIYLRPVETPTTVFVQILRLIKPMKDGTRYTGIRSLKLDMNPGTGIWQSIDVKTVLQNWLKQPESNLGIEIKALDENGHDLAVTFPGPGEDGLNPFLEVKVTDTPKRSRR
T1 sequence 2: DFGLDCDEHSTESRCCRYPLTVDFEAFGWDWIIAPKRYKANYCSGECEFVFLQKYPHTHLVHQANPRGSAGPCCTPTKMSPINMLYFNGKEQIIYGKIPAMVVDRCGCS

[2] = biological target: T2, mouse latent myostatin (mouse, UniProt O08689 26-267; O08689 268-376); assay: SPR affinity condition pH5.8 37C; pH 5.8
T2 sequence 1: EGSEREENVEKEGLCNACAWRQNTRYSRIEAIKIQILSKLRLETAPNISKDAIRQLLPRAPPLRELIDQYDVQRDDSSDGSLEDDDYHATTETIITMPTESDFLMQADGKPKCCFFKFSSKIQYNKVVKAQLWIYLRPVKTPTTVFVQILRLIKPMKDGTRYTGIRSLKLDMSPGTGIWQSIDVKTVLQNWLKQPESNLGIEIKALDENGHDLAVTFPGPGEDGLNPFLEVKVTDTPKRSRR
T2 sequence 2: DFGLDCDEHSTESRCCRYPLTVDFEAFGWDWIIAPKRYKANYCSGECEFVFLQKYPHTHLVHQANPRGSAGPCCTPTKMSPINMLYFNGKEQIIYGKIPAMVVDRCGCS

[3] = biological target: T1, human latent myostatin; assay: SPR affinity condition pH5.8 37C; pH 5.8
[4] = biological target: T3, cynomolgus monkey latent myostatin (cynomolgus monkey, UniProt Q95J86 25-266; Q95J86 267-375, limits assumed); assay: SPR affinity condition pH5.8 37C; pH 5.8
T3 construct: also called cyno latent myostatin
T3 sequence 1: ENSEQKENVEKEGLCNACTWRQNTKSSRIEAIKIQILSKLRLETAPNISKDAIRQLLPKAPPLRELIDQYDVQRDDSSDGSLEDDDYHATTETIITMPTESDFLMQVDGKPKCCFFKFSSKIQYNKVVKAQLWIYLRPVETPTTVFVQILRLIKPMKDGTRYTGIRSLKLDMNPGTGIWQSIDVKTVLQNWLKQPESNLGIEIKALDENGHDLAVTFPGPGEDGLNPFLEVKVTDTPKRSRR
T3 sequence 2: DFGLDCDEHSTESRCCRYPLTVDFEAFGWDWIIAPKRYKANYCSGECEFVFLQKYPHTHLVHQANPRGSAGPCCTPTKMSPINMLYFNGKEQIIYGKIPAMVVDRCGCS

[5] = biological target: T1, human latent myostatin; assay: SPR, dissociation phase at pH5.8
[6] = biological target: T2, mouse latent myostatin; assay: SPR affinity condition pH7.4 37C; pH 7.4
[7] = biological target: T1, human latent myostatin; assay: SPR affinity condition pH7.4 37C; pH 7.4
[8] = biological target: T3, cynomolgus monkey latent myostatin; assay: SPR affinity condition pH7.4 37C; pH 7.4
[9] = biological target: T2, mouse latent myostatin; assay: SPR avidity condition pH7.4 37C; pH 7.4
[10] = biological target: T1, human latent myostatin; assay: SPR avidity condition pH7.4 37C; pH 7.4
[11] = biological target: T3, cynomolgus monkey latent myostatin; assay: SPR avidity condition pH7.4 37C; pH 7.4
[12] = biological target: T2, mouse latent myostatin; assay: SPR avidity condition pH5.8 37C; pH 5.8
[13] = biological target: T1, human latent myostatin; assay: SPR avidity condition pH5.8 37C; pH 5.8
[14] = biological target: T3, cynomolgus monkey latent myostatin; assay: SPR avidity condition pH5.8 37C; pH 5.8
[15] = biological target: T2, mouse latent myostatin; assay: SPR affinity condition pH7.4 37C
[16] = biological target: T1, human latent myostatin; assay: SPR affinity condition pH7.4 37C
[17] = biological target: T3, cynomolgus monkey latent myostatin; assay: SPR affinity condition pH7.4 37C
[18] = biological target: T4, human Fc gamma RIIb on MDCK cells (human, UniProt P31994 43-310); assay: cell-based or functional assay
T4 sequence (looked up): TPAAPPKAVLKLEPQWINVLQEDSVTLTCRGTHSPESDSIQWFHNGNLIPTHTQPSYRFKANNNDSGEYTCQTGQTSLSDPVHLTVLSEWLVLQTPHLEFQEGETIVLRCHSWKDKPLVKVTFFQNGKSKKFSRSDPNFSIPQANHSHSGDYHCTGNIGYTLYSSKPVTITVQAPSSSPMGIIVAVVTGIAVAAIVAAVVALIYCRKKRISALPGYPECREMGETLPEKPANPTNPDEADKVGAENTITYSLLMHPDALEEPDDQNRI

[19] = biological target: T5, GST-hMSTN 101-200aa (human, UniProt A1C2U3 101-200 (Pongo pygmaeus entry)); assay: Western blot
T5 construct: not shown: GST tag of pGEX4.1 vector
T5 sequence: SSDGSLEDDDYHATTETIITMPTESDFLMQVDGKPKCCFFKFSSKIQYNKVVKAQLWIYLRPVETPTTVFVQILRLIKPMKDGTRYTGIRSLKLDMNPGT

[20] = biological target: T6, GST-hMSTN 141-241aa (human, UniProt A1C2U3 141-241 (Pongo pygmaeus entry)); assay: Western blot
T6 construct: not shown: GST tag of pGEX4.1 vector
T6 sequence: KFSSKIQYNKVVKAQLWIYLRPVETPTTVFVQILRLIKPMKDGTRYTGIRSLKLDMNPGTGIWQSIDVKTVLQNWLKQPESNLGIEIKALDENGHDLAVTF

[21] = biological target: T7, GST-hMSTN 121-220aa (human, UniProt A1C2U3 121-220 (Pongo pygmaeus entry)); assay: Western blot
T7 construct: not shown: GST tag of pGEX4.1 vector
T7 sequence: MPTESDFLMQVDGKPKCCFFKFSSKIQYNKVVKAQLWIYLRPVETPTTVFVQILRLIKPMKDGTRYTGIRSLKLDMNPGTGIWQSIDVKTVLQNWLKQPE

B1: MS_M103205H000-SG1/M103202L000-SK1 (antibody, human IgG1, kappa, V domains shown)
VH: QVTLKESGPVLVKPTETLTLTCTVSGIDLSSYDISWVRQAPGKGLEWVGIISYAGSTYYASWAKGRLTISKDTSKNQVVLTMTNMDPVDTATYYCARGVPAYSTGGDLWGQGTLVTVSS
VL: DIVMTQSPATLSLSPGERATLSCQSSQSVYDNNWLSWFQQKPGQPPKLLIYWASTLASGVPSRFSGSGSGTDFTLTISSLQPEDAATYYCAGGYGGGLYAFGQGTKVEIKR
notes: humanized; also called MS1032LO00-SG1; Ab001
- Kd [1]: 0.075 nM
- koff [1]: 9.52e-05 s⁻¹
- kon [1]: 1.27e+06 M⁻¹ s⁻¹
- Kd [2]: 0.0438 nM
- koff [2]: 7.08e-05 s⁻¹
- kon [2]: 1.62e+06 M⁻¹ s⁻¹
- Kd [3]: 0.215 nM
- koff [3]: 0.000235 s⁻¹
- kon [3]: 1.09e+06 M⁻¹ s⁻¹
- Kd [4]: 0.139 nM
- koff [4]: 0.000196 s⁻¹
- kon [4]: 1.41e+06 M⁻¹ s⁻¹
- koff [5]: 2.92e-05 s⁻¹
- Kd [6]: 0.122 nM
- koff [6]: 0.00016 s⁻¹
- kon [6]: 1.31e+06 M⁻¹ s⁻¹
- Kd [7]: 0.23 nM
- koff [7]: 0.000245 s⁻¹
- kon [7]: 1.07e+06 M⁻¹ s⁻¹
- Kd [8]: 0.209 nM
- koff [8]: 0.000213 s⁻¹
- kon [8]: 1.02e+06 M⁻¹ s⁻¹
- Kd [9]: 0.0471 nM
- koff [9]: 7.18e-05 s⁻¹
- kon [9]: 1.52e+06 M⁻¹ s⁻¹
- Kd [10]: 0.075 nM
- koff [10]: 9.52e-05 s⁻¹
- kon [10]: 1.27e+06 M⁻¹ s⁻¹
- Kd [11]: 0.0666 nM
- koff [11]: 8.08e-05 s⁻¹
- kon [11]: 1.21e+06 M⁻¹ s⁻¹
- Kd [12]: 0.0087 nM
- koff [12]: 2.02e-05 s⁻¹
- kon [12]: 2.32e+06 M⁻¹ s⁻¹
- Kd [13]: 0.0797 nM
- koff [13]: 0.000128 s⁻¹
- kon [13]: 1.6e+06 M⁻¹ s⁻¹
- Kd [14]: 0.00883 nM
- koff [14]: 1.58e-05 s⁻¹
- kon [14]: 1.79e+06 M⁻¹ s⁻¹

B3: MS103240H795-TT14/M103202L1045-SK1 (antibody, human IgG1, kappa)
heavy: QVQLVESGGGLVQPGGSLRLSCAVSGIDLSHDDISWVRQAPGKGLEWVSIISYAGSTYYASWAKGRLTISKDTSKNQVVLTMTNMDPVDTATYYCARGVPAYSHGGDLWGQGTLVTVSSASTKGPSVFPLAPSSKSTSGGTAALGCLVKDYFPEPVTVSWNSGALTSGVHTFPAVLQSSGLYSLSSVVTVPSSSLGTQTYICNVNHKPSNTKVDKKVEPKSCDKTHTCPPCPAPEYLGGDSVFLFPPKPKDVLMISRTPEVTCVVIDVSHEDPEVKFNWYVDGVEVHNAKTKPREEQYNSTYRVVSVLPVLHQDWLNGKEYKCKVSNKALPKPIEKTISKAKGQPREPQVYTLPPSREEMTKNQVSLTCLVKGFYPSDIAVEWESNGQPENNYKTTPPVLDSDGSFFLYSKLTVDKSRWQQGNVFSCSVMHEALHNHYTQKSLSLSP
light: DIVMTQSPATLSLSPGERATLSCTTSQSVYHENWLSWFQQKPGQPPKLLIYWASTLAYGVPSRFSGSGSGTDFTLTISSLQPEDAATYYCAGGYGGGRYAFGQGTKVEIKRTVAAPSVFIFPPSDEQLKSGTASVVCLLNNFYPREAKVQWKVDNALQSGNSQESVTEQDSKDSTYSLSSTLTLSKADYEKHKVYACEVTHQGLSSPVTKSFNRGEC
- antigen fluorescence intensity inside cells (uptake of antigen-antibody complex) [18]: 7.5 fold of SG1

B5: MST1032 (as used in Example 26) (antibody, V domains shown)
VH: QSLEESGGRLVTPGGSLTVTCRVSGIDLSSYDISWVRQAPGKGLEWIGIISYAGSTYYASWAKGRFTISKTSTTVDLKMTSLTTEDTATYFCARGVPAYSTGGDLWGPGTLVTVSS
VL: AQVLTQTASSVSAAVGGTVTINCQSSQSVYDNNWLSWFQQKPGQPPKLLIYWASTLASGVPSRFKGSGSGTQFTLTISDLECDDAATYYCAGGYGGGLYAFGGGTKVEIK
- binding result [19]: no binding
- binding result [20]: no binding
- binding result [21]: no binding

Other lines, results leading:

- Kd [15]: 0.713 nM
- koff [15]: 0.00107 s⁻¹
- kon [15]: 1.5e+06 M⁻¹ s⁻¹
- Kd [16]: 0.788 nM
- koff [16]: 0.00129 s⁻¹
- kon [16]: 1.64e+06 M⁻¹ s⁻¹
- Kd [17]: 0.954 nM
- koff [17]: 0.0011 s⁻¹
- kon [17]: 1.15e+06 M⁻¹ s⁻¹
- Kd [9]: 0.149 nM
- koff [9]: 0.000217 s⁻¹
- kon [9]: 1.45e+06 M⁻¹ s⁻¹
- Kd [11]: 0.165 nM
- koff [11]: 0.000197 s⁻¹
- kon [11]: 1.19e+06 M⁻¹ s⁻¹
- Kd [12]: 6.15 nM
- koff [12]: 0.00625 s⁻¹
- kon [12]: 1.02e+06 M⁻¹ s⁻¹
- Kd [13]: 19.5 nM
- koff [13]: 0.0242 s⁻¹
- kon [13]: 1.22e+06 M⁻¹ s⁻¹
- Kd [14]: 8.9 nM
- koff [14]: 0.0068 s⁻¹
- kon [14]: 764000 M⁻¹ s⁻¹
B2: MS_M103205H714-SG1/M103202L861-SK1 (antibody, human IgG1, kappa, V domains shown)
VH: QVTLKESGPVLVKPTETLTLTCTVSGIDLSHTDISWVRQAPGKGLEWVGIISYAGSTYYASWAKGRLTISKDTSKNQVVLTMTNMDPVDTATYYCARGVPAYSHGGDLWGQGTLVTVSS
VL: DIVMTQSPATLSLSPGERATLSCTSSQSVYHNNWLSWFQQKPGQPPKLLIYWASTLAYGVPSRFSGSGSGTDFTLTISSLQPEDAATYYCAGGYGGGRYAFGQGTKVEIKR
notes: also called MS1032LO01-SG1

- antigen antibody uptake into the cells [18]: 36 fold of SG1
B4: MS103240H795-TT33/M103202L1045-SK1 (antibody, human IgG1, kappa)
heavy: QVQLVESGGGLVQPGGSLRLSCAVSGIDLSHDDISWVRQAPGKGLEWVSIISYAGSTYYASWAKGRLTISKDTSKNQVVLTMTNMDPVDTATYYCARGVPAYSHGGDLWGQGTLVTVSSASTKGPSVFPLAPSSKSTSGGTAALGCLVKDYFPEPVTVSWNSGALTSGVHTFPAVLQSSGLYSLSSVVTVPSSSLGTQTYICNVNHKPSNTKVDKKVEPKSCDKTHTCPPCPAPEYLGGDSVFLFPPKPKDVLMISRTPEVTCVVIDVSHEDPEVKFNWYVDGVEVHNAKTKPREEQYNSTYRVVSVLPVLHRDWLNGKEYKCKVSNKALPKPIEKTISKAKGQPREPQVYTLPPSREEMTKNQVSLTCLVKGFYPSDIAVEWESNGQPENNYKTTPPVLDSDGSFFLYSKLTVKKSRWQQGNVFSCSVMHEALHNHYTQKSLSLSP
light: DIVMTQSPATLSLSPGERATLSCTTSQSVYHENWLSWFQQKPGQPPKLLIYWASTLAYGVPSRFSGSGSGTDFTLTISSLQPEDAATYYCAGGYGGGRYAFGQGTKVEIKRTVAAPSVFIFPPSDEQLKSGTASVVCLLNNFYPREAKVQWKVDNALQSGNSQESVTEQDSKDSTYSLSSTLTLSKADYEKHKVYACEVTHQGLSSPVTKSFNRGEC
